In patent US20230183371A1 (University of Texas, published 2023):

T1: recombinant human CD79b protein (human, UniProt P40259 29-159, limits assumed)
T1 sequence (looked up): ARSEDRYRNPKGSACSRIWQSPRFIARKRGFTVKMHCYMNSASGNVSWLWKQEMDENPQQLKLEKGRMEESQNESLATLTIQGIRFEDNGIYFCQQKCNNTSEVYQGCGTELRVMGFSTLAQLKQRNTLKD

T2: human CD79b expressed on cells (human, UniProt P40259 29-229)
T2 construct: whole, on cells; also called human CD79b expressed on mouse fibroblast L cells; CD79b on B cell lymphoma cell lines (Daudi, SUDHL6)
T2 sequence (looked up): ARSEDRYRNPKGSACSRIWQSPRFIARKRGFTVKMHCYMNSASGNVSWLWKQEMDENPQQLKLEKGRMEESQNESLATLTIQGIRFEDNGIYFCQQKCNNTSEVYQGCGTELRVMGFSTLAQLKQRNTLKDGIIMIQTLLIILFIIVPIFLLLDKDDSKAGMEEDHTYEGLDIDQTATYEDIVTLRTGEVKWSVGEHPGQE


How the values were obtained:
[1] = target: T1, recombinant human CD79b protein; test: ELISA on recombinant human CD79b protein
[2] = target: T1, recombinant human CD79b protein; test: Octet assay
[3] = target: T1, recombinant human CD79b protein; test: EC50 column of the drawn table; the table does not name the assay, the text gives an ELISA on recombinant human CD79b protein (FIG. 2B)
[4] = target: T2, human CD79b expressed on cells; test: ELISA on mouse fibroblast L cells expressing human CD79b
Description: Binding of anti-CD79b antibodies to human CD79b: Full length anti-CD79b monoclonal antibodies (clones 5B and 28B) isolated from hybridoma supernatants were used to test binding to human CD79b expressed on mouse fibroblast L cells by ELISA (FIG. 7).

| Binder | EC50 (read off the curve) [1] | Kd [2] | EC50 [3] | EC50 [4] | EC50 (read off the curve) [4] |
| --- | --- | --- | --- | --- | --- |
| anti-human CD79b monoclonal antibody clone 14 (IgG1) (antibody, V domains shown) VH: EVQLQESGPELKKPGETVKISCKASGYTFTDYSMHWVKQAPGKGLKWMGWINTETGEPTYADDFKGRFAFSLETSASTAYLQINNLKNDDTATYFCNMDSWGQGTSVTVSS VL: QIVLTQSPAIMSASPGEKVTMTCSASSSVSYMWWYHQKPGSSPRLLIFDTSNLASGVPVRFSGSGSGTSYSLTISRMEAEDAATYYCQQWTSYPYTFGGGTKLEIK | ~0.02 µg/mL | 1.44 nM | 0.0162 µg/mL | – | – |
| anti-CD79b monoclonal antibody clone 5B (antibody, V domains shown, Full length monoclonal antibody isolated from hybridoma supernatant) VH: EVQLQESGAELVKPGASVKMSCKASGYTFTSYWMHWVKQRPGQGLEWIGAIDPSDSYTGYNQKFKGKATLTVDTSSSTAYMHLSSLTSEDSAVYFCTRSYYGNSWFDYWGQGTLVTVSA VL: DIVLTQSPASLAVSLGQRATISCKASQSVDYEGDSYMNWYQQKPGQPPKLLIYAASNLESGIPARFSGSGSGTDFTLNIHPVEEEDAATYHCQQSNEDPFTFGGGTKLEIK | – | – | – | 0.0409 µg/mL | ~0.04 µg/mL |
| anti-CD79b monoclonal antibody clone 28B (antibody, V domains shown, Full length monoclonal antibody isolated from hybridoma supernatant) VH: EVQLQESGAELVKPGASVKMSCKASGYTFTSYWMHWVKQRPGQGLEWIGAIDPSDSYTGYNQKFKGKATLTVDTSSSTAYMHLSSLTSEDSAVYFCTRSYYGNSWFAYWGQGTLVTVSA VL: DIVLTQSPASLAVSLGQRATISCKASQSVDYDGDSYMNWYQQKPGQPPKLLIYVASNLESGIPARFSGSGSGTDFTLNIHPVEEEDAATYYCQQSNEDPFTFGSGTKLEIN | – | – | – | 0.0252 µg/mL | ~0.02 µg/mL |
| anti-human CD79b monoclonal antibody clone 45 (IgG2) (antibody, V domains shown) VH: EVQLQESGAELVRPGALVKLSCRASGFNIKDYYMHWVKQRPEQGLEWIGWIDPENGNSIYDPKFQGKASITADTSSNTAYLQLSSLTSEDTAVYYCAVDLYYGRGTLVTVSA VL: NIMMTQSPSSLAVSAGEKVTMRCKSSQSVLYSSNQKNYLAWYQQKPGQSPKLLIYWASTRESGVPDRFTGSGSGTDFTLTISSVQAEDLAVYYCHQFLSSYTFGGGTKLEIK | ~0.03 µg/mL | 2 nM | 0.0301 µg/mL | – | – |
